Assay results: PMC7211764 (Biochemistry, 2019)

Biological target: the molecule itself
Assay: SEC

B1: A3A H29R (enzyme)
chain: not shown
stoichiometry N: 2
